The data set deals with the molecule itself. Nature of the data set: cryo-EM structure.

B1: Transmembrane protein 175 (TMEM175), human (natural protein)
chain: MSQPRTPEQALDTPGDCPPGRRDEDAGEGIQCSQRMLSFSDALLSIIATVMILPVTHTEISPEQQFDRSVQRLLATRIAVYLMTFLIVTVAWAAHTRLFQVVGKTDDTLALLNLACMMTITFLPYTFSLMVTFPDVPLGIFLFCVCVIAIGVVQALIVGYAFHFPHLLSPQIQRSAHRALYRRHVLGIVLQGPALCFAAAIFSLFFVPLSYLLMVTVILLPYVSKVTGWCRDRLLGHREPSAHPVEVFSFDLHEPLSKERVEAFSDGVYAIVATLLILDICEDNVPDPKDVKERFSGSLVAALSATGPRFLAYFGSFATVGLLWFAHHSLFLHVRKATRAMGLLNTLSLAFVGGLPLAYQQTSAFARQPRDELERVRVSCTIIFLASIFQLAMWTTALLHQAETLQPSVWFGGREHVLMFAKLALYPCASLLAFASTCLLSRFSVGIFHLMQIAVPCAFLLLRLLVGLALATLRVLRGLARPEHPPPAPTGQDDPQSQLLPAPC
Turning to B1, the binding result is “binds”.

These data come from article PMC9636928 (Proceedings of the National Academy of Sciences of the …, 2022).
